Test system: MS2 coat protein
Assay: apparent KD of MS2 coat protein; higher = weaker reporter binding
Settings: Eterna round: R107
Procedure, shortened: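 Designed RNA switches were transcribed on-chip from Illumina sequencing clusters and titrated with SNAP-549-labelled MS2 coat protein in twofold steps from 0.7 or 1.5 nM up to 3 µM. Each step lasted 0.8–1.5 h at first and 10–20 min by the end, in 100 mM Tris-HCl pH 7.5, 80 mM KCl and 4 mM MgCl2, without or with constant ligand. Apparent KD is the median, for each design, of fits to normalised cluster binding curves.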

[1] = input ligand: theophylline 20 uM
[2] = input ligand: theophylline 2 mM
[3] = input ligand: tryptophan 2.4 mM

CCCAAAUAGAUCUUUGGAAUUUUACUCGAAGGAGCGUCAUAGUAGGCAGGUAGGUCGCGAGACAUGAGGAUCACCCAUGUAGAGA [kinmullin]
apparent KD of MS2 coat protein (input ligand: arginine 13.2 mM): 18.7 nM
apparent KD of MS2 coat protein (input ligand: none): 53.7 nM
apparent KD of MS2 coat protein [1]: 35.5 nM
apparent KD of MS2 coat protein [2]: 45.8 nM
apparent KD of MS2 coat protein [3]: 32.4 nM

CCCUCGUCAACGGCCGCCACUGUGAUUCACUAAGAUAAUAUUGCACAUGAGGAUCACCCAUGUCUCAGGACCGGGUUGGUGUGUC [theeternabot_sameState_MS2_Trp_B_38]
apparent KD of MS2 coat protein (input ligand: arginine 13.2 mM): 82 nM
apparent KD of MS2 coat protein [1]: 128 nM
apparent KD of MS2 coat protein [2]: 131 nM

CCGAACAUGAGGAUCACCCAUGUAUCCGAGCGAGGACCGGUACGGCCGCCACUCGAACUGCACCGGAAAAGGGAAACACCGAUCC [theeternabot_sameState_MS2_Trp_A_9]
apparent KD of MS2 coat protein (input ligand: arginine 13.2 mM): 33.4 nM
apparent KD of MS2 coat protein [1]: 95.7 nM
apparent KD of MS2 coat protein [2]: 69.3 nM

CCGACGAUGACUAUGGGUCAGGAGUGCGCACGAGGACCGGUACGGCCGCCACUCGAGGAGUGGGACAUGAGGAUCACCCAUGUGG [X-TryptA-MS2@65]
apparent KD of MS2 coat protein (input ligand: arginine 13.2 mM): 31.5 nM
apparent KD of MS2 coat protein (input ligand: none): 30 nM
apparent KD of MS2 coat protein [1]: 73.7 nM
apparent KD of MS2 coat protein [2]: 52.8 nM
apparent KD of MS2 coat protein [3]: 33.6 nM

CCGGAGACCGUGUCAGCGGAAGCAAGAACACGAGGACCGGUACGGCCGCCACUCGAAAGAAGACAUGAGGAUCACCCAUGUCCAU [theeternabot_exclusion_MS2_Trp_A_43]
apparent KD of MS2 coat protein (input ligand: arginine 13.2 mM): 10.5 nM
apparent KD of MS2 coat protein [1]: 15.1 nM
apparent KD of MS2 coat protein [2]: 13.8 nM

CCGUCACAUGAGGAUCACCCAUGUGGUGAUACCAGCAGUCGACCCUGCCCUUGGCAGCACAUUAUCAUAAAAGCAAUCAGCAACG [theeternabot_sameState_MS2_Theo_A_41]
apparent KD of MS2 coat protein (input ligand: arginine 13.2 mM): 57 nM
apparent KD of MS2 coat protein [1]: 269 nM
apparent KD of MS2 coat protein [3]: 135 nM

CCGUUUUAUGGCGACAUAGGGCGGACUGAAGGAGCGGGAUAAAACCCAGGUAGGUCGCAGAGAUCCACAUGAGGAUCACCCAUGU [!0.X]
apparent KD of MS2 coat protein (input ligand: arginine 13.2 mM): 35.9 nM
apparent KD of MS2 coat protein (input ligand: none): 38 nM
apparent KD of MS2 coat protein [1]: 54.5 nM
apparent KD of MS2 coat protein [2]: 32.8 nM
apparent KD of MS2 coat protein [3]: 35.9 nM

CCUAUGCAGUCGGCCGCCACUGAACAUGAGGAUCACCCAUGUAUAUAAAGAUCCUGAUAUAAUAACAGGACCGGGACUGUAUAGG [Ex Tryptophan B 10]
apparent KD of MS2 coat protein (input ligand: arginine 13.2 mM): 39.2 nM
apparent KD of MS2 coat protein [1]: 73.4 nM
apparent KD of MS2 coat protein [2]: 58.1 nM

CCUCAUGUGACGGCCGCCACUGAAGUGAUCGAAACAUGAGGAUCACCCAUGUUACGAUCAGAGAACAGGACCGGGUCAACAUGGG [Try B SS s1]
apparent KD of MS2 coat protein (input ligand: arginine 13.2 mM): 7.46 nM
apparent KD of MS2 coat protein (input ligand: none): 9.32 nM
apparent KD of MS2 coat protein [1]: 13.6 nM
apparent KD of MS2 coat protein [2]: 13.1 nM
apparent KD of MS2 coat protein [3]: 9.85 nM

CCUGCGUUUCUUUUCUUUCGCAGGAAUGAUACCAGUAGGGAAACCUACCCUUGGCAGCAUGGGACAUGAGGAUCACCCAUGUUAU [SSThA NP+V+V2 #3]
apparent KD of MS2 coat protein (input ligand: arginine 13.2 mM): 167 nM
apparent KD of MS2 coat protein [1]: 243 nM
apparent KD of MS2 coat protein [3]: 300 nM

CCUGCUACGGGAAACCGUAGCAGGAAUGAUACCAGUAGGAAAGACUACCCUUGGCAGCAUGGGUAACAUGAGGAUCACCCAUGUU [SSThA NP+V+V2 #6 Same Structure]
apparent KD of MS2 coat protein (input ligand: arginine 13.2 mM): 70.9 nM
apparent KD of MS2 coat protein (input ligand: none): 132 nM
apparent KD of MS2 coat protein [1]: 124 nM
apparent KD of MS2 coat protein [2]: 87.9 nM
apparent KD of MS2 coat protein [3]: 66 nM

CCUGGAUCAGAUCUUAAAGGCGGUUCUGAUACCAGUCUUUUCCGAGACCCUUGGCAGCAGAACACAUGAGGAUCACCCAUGUAAA [theeternabot_exclusion_MS2_Theo_A_11]
apparent KD of MS2 coat protein (input ligand: arginine 13.2 mM): 29.1 nM
apparent KD of MS2 coat protein [1]: 59 nM
apparent KD of MS2 coat protein [3]: 59.7 nM

CCUUAAUAUGGAAGGAGCGCGCUAACAUGAGGAUCACCCAUGUAAAGGGUUUUAGGCUUAGCGCAGGUAGGUCGCCGUAAGAACC [#09 Exclusion - Arginine B]
apparent KD of MS2 coat protein (input ligand: arginine 13.2 mM): 288 nM
apparent KD of MS2 coat protein (input ligand: none): 249 nM
apparent KD of MS2 coat protein [1]: 266 nM
apparent KD of MS2 coat protein [2]: 327 nM
apparent KD of MS2 coat protein [3]: 252 nM

CGAACAAAACUAAAUAAACAACUGGGUGAUACCAGUACAUGUGCGUACCCUUGGCAGCAUCCGGCCACAUGAGGAUCACCCAUGU [Ridiansoer]
apparent KD of MS2 coat protein (input ligand: arginine 13.2 mM): 35.4 nM
apparent KD of MS2 coat protein [1]: 98.8 nM
apparent KD of MS2 coat protein [3]: 40.9 nM

CGAAUACUGAGUGAUACCAGUGAAAGAUAACUGUAUACACAUGAGGAUCACCCAUGUACACACCCUUGGCAGCACACUAGAUCGA [Same State Theophylline B GF 2]
apparent KD of MS2 coat protein (input ligand: arginine 13.2 mM): 25.8 nM
apparent KD of MS2 coat protein [1]: 40 nM
apparent KD of MS2 coat protein [3]: 29.9 nM

CGAUAUAUAGCGGCCGCCACUUACUCAUGAGGUAACAACAUGAGGAUCACCCAUGUUUGAGGAUCAAGGACCGGGCUAUGUAUCG [AstrosSSTryB#14]
apparent KD of MS2 coat protein (input ligand: arginine 13.2 mM): 24.9 nM
apparent KD of MS2 coat protein [1]: 32 nM
apparent KD of MS2 coat protein [2]: 29.4 nM
